From US8691944B2, “Fibronectin polypeptides and methods of use” (The Research Foundation for the State University of New York, priority 2005, dated 2014)

How the values were obtained:
PDGF-BB [1] = target: T1, PDGF-BB (Homo sapiens, UniProt P01127); experiment: Equilibrium binding of PDGF-BB to FN, FN domains and peptides
From the text: (§1) This led us to speculate that PDGF was binding to the engineered ECM through the H or HV domain since vascular endothelial GF (VEGF), a member of the PDGF superfamily, had been reported to bind H and remain active while bound.
(§2) The survival of FN-null fibroblasts in the presence to PDGF-BB required substrate coated with intact FN or FNIII8-11+a PDGF-binding FN domain. […] To address this directly, we performed equilibrium binding assays with PDGF-BB to FN adsorbed to a surface or coupled to agarose beads. In addition, we also investigated the ability of other growth factors to bind intact FN.

FGF-2 = FGF-2 (Homo sapiens, UniProt P09038); experiment: Plasmon resonance binding of FGF-2 to FN domains
Chain of FGF-2 (P09038 143-288): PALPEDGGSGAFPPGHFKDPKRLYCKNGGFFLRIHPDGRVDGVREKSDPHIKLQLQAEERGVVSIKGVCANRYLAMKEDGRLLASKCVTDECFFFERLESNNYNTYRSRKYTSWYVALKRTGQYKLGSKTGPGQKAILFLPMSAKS
From the text: (§3) VEGF, TGF-β1, PDGF-BB and FGF-2 bound IIICS with similar affinities (KD˜10^−7 M). […] The tested biological activities of GFs bound to a FN functional domain were retained or enhanced. […] In addition, our studies provide important information regarding the delivery of GFs and the sequestering of GFs, as appropriate, for therapeutic (e.g., surgical) or aesthetic indications, including wound healing treatments (where an aim is GF delivery) and cancer treatments (where an aim is GF sequestration). Where FN fragments are used to deliver GFs, they may be described as maintaining, activating, stabilizing or enhancing GF activity.

TGF-β1 [2] = target: T2, TGF-β1 (Homo sapiens, UniProt P01137); experiment: Equilibrium binding of TGF-β1 to FN, FN domains and peptides
T2 sequence (P01137 279-390 limits assumed, species assumed): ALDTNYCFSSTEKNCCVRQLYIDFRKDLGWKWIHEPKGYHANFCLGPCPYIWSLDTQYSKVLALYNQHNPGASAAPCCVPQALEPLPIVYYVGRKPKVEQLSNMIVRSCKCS
Method: These peptides represent domains that follow the sequence pattern [QN]-X(1,2)-[ST]-X(0,1)-[IG]-[QS]-[KRQ]-[YTM]-[IG]-X(4,5)-X(0,1)-[KR]-X(1,2)-X(1,2)-[RT]-X(1,2)-[KQTS]-X(2)-T and that bind TGF-β1 with a certain affinity. […] We know of no other peptides in the human genome database that follow this pattern.
(§4) To determine whether FN domains bind TGF-β1 and bFGF, equilibrium and kinetic binding was performed.

VEGF = experiment: Plasmon resonance binding of VEGF to FN domains
From the text: as §3

TGF-β1 [3] = target: T2, TGF-β1; experiment: Plasmon surface resonance kinetic binding of TGF-β1 to FN domains; details: for Kd: plasmon (surface) resonance, kinetic binding
From the text: as §3, §4

PDGF-BB [4] = target: T1, PDGF-BB; experiment: Surface plasmon resonance kinetic binding of PDGF-BB to FN domains; details: for Kd: kinetic binding
From the text: as §3, with “activity. […]” for “activity.”

bFGF = bFGF (Homo sapiens, UniProt P09038); experiment: Equilibrium binding of bFGF (FGF-2) to FN, FN domains and peptides; details: method not specified (equilibrium and kinetic binding performed); read-out: KD, bFGF binding
Chain of bFGF (P09038 143-288): as the sequence (P09038 143-288) above
Method: as §2, §4

fibroblast chemotaxis = experiment: Fibroblast chemotaxis to GFs in the presence or absence of FN domains; format: cell-based; details: in solution
Method: To determine whether FN functional domains modulated TGF-β1, bFGF or PDGF-BB activity in solution, fibroblast chemotaxis was performed in response to the GFs in the presence or absence of FN domains.

GFs = experiment: Growth factor binding to FN domains (GFs in general)
From the text: as §1

[5] = test system: mouse fibroblasts null for FN (FN−/−); experiment: Survival of FN-null fibroblasts on FN domains with PDGF-BB; format: cell-based; details: for FN-null cell survival / proliferation with PDGF-BB: FNIII8-11 + the named domain, or named protein
From the text: To further investigate the response of cells to PDGF-BB bound to FN domains, we investigated the survival response of mouse fibroblasts null for FN (FN−/−). First we determined the response of FN-null cells to PDGF-BB in the absence of serum or other sources of exogenous FN. […] […] […] Importantly, differential response of FN-null cells, plated on different FN domains, to PDGF-BB was not secondary to differences in attachment as judged by cell counts two hours after plating. The FNIII8-11 central cell binding domain was present in all circumstances.

EGF = EGF (Homo sapiens, UniProt P01133); experiment: Binding of EGF to FN, FN domains and peptides
Chain of EGF (P01133 971-1023 limits assumed, species assumed): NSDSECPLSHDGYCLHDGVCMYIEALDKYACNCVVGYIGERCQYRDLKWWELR
From the text: as §3, §2, §4

[6] = method not specified (equilibrium and kinetic binding performed)

T1 sequence (P01127 82-190 limits assumed): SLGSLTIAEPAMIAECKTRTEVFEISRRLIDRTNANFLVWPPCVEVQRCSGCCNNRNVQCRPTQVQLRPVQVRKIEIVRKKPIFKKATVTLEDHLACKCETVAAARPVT

B1: FNIII12-13: FN type III repeats 12-13 (protein)
chain: AIPAPTDLKFTQVTPTSLSAQWTPPNVQLTGYRVRVTPKEKTGPMKEINLAPDSSSVVVSGLMVATKYEVSVYALKDTLTSRPAQGVVTTLENVSPPRRARVTDATETTITISWRTKTETITGFQVDAVPANGQTPIQRTIKPDVRSYTITGLQPGTDYKIYLYTLNDNARSSPVVIDAST
B1 was tested. Which Kd (PDGF-BB [1]) did it give?
The Kd was 75 nM.

B2: FNIII1-7: FN type III repeats 1-7 (protein)
chain: GPVEVFITETPSQPNSHPIQWNAPQPSHISKYILRWRPKNSVGRWKEATIPGHLNSYTIKGLKPGVVYEGQLISIQQYGHQEVTRFDFTTTSTSTPVTSNTVTGETTPFSPLVATSESVTEITASSFVVSWVSASDTVSGFRVEYELSEEGDEPQYLDLPSTATSVNIPDLLPGRKYIVNVYQISEDGEQSLILSTSQTTAPDAPPDTTVDQVDDTSIVVRWSRPQAPITGYRIVYSPSVEGSSTELNLPETANSVTLSDLQPGVQYNITIYAVEENQESTPVVIQQETTGTPRSDTVPSPRDLQFVEVTDVKVTIMWTPPESAVTGYRVDVIPVNLPGEHGQRLPISRNTFAEVTGLSPGVTYYFKVFAVSHGRESKPLTAQQTTKLDAPTNLQFVNETDSTVLVRWTPPRAQITGYRLTVGLTRRGQPRQYNVGPSVSKYPLRNLQPASEYTVSLVAIKGNQESPKATGVFTTLQPGSSIPPYNTEVTETTIVITWTPAPRIGFKLGVRPSQGGEAPREVTSDSGSIVVSGLTPGVEYVYTIQVLRDGQERDAPIVNKVVTPLSPPTNLHLEANPDTGVLTVSWERSTTPDITGYRITTTPTNGQQGNSLEEVVHADQSSCTFDNLSPGLEYNVSVYTVKDDKESVPISDTIIP
How did the Kd (PDGF-BB [1]) turn out when B2 was run?
Its Kd is 75 nM.

What about the “FGF-2 binding (in words)” value (FGF-2) of the same molecule?
Its value is “all four GFs bound”.

What about the Kd (TGF-β1 [2]; equilibrium binding) of the same molecule?
The Kd was 17 nM.

And the “VEGF binding (in words)” value (VEGF)?
The value was “all four GFs bound”.

And the Kd (TGF-β1 [3])?
Its Kd is 18 nM.

And the “TGF-β1 binding (in words)” value (TGF-β1 [3]; plasmon resonance)?
The value was “all four GFs bound”.

And the “PDGF-BB binding (in words)” value (PDGF-BB [4])?
Its value is “all four GFs bound”.

And the Kd (PDGF-BB [4])?
Its Kd is 100 nM.

And the Kd (bFGF)?
The Kd was 4.1 nM.

B3: FNIII3-6: recombinant FN type III repeats 3-6 (protein)
chain: MGSAPDAPPDTTVDQVDDTSIVVRWSRPQAPITGYRIVYSPSVEGSSTELNLPETANSVTLSDLQPGVQYNITIYAVEENQESTPVVIQQETTGTPRSDTVPSPRDLQFVEVTDVKVTIMWTPPESAVTGYRVDVIPVNLPGEHGQRLPISRNTFAEVTGLSPGVTYYFKVFAVSHGRESKPLTAQQTTKLDAPTNLQFVNETDSTVLVRWTPPRAQITGYRLTVGLTRRGQPRQYNVGPSVSKYPLRNLQPASEYTVSLVAIKGNQESPKATGVFTTLQPGSSIPPYNTEVTETTIVITWTPAPRIGFKLGVRPSQGGEAPREVTSDSGSIVVSGLTPGVEYVYTIQVLRDGQERDAPIVNKVVTTSHHHHHHC
Which “enhancement of chemotactic activity of TGF-β1, bFGF and PDGF-BB” value (fibroblast chemotaxis) does the source give for B3 here?
The value was “did not enhance”.

And the “PDGF-BB binding (in words)” value (PDGF-BB [1])?
Its value is “did not”.

And the “binding of any GF (in words)” value (GFs)?
The value was “In no case did any GF bind”.

And the “PDGF-BB binding (in words)” value (PDGF-BB [4])?
The value was “no binding”.

What about the “support of FN-null fibroblast survival in the presence of PDGF-BB” value ([5]; substrate coating, FNIII8-11 alone or + named domain) of the same molecule?
The value was “did not support cell survival”.

B4: FNIII12-14: recombinant FN type III repeats 12-14, heparinII-binding domain (protein)
chain: MGSAIPAPTDLKFTQVTPTSLSAQWTPPNVQLTGYRVRVTPKEKTGPMKEINLAPDSSSVVVSGLMVATKYEVSVYALKDTLTSRPAQGVVTTLENVSPPRRARVTDATETTITISWRTKTETITGFQVDAVPANGQTPIQRTIKPDVRSYTITGLQPGTDYKIYLYTLNDNARSSPVVIDASTAIDAPSNLRFLATTPNSLLVSWQPPRARITGYIIKYEKPGSPPREVVPRPRPGVTEATITGLEPGTEYTIYVIALKNNQKSEPLIGRKKTTSHHHHHHC
What does the source list for B4?
Kd (PDGF-BB [1]): 35 nM; Kd (TGF-β1 [2]; [6]): 7.6 nM; Kd (TGF-β1 [3]): 7.6 nM; Kd (PDGF-BB [4]): 55 nM; Kd (bFGF): 1.9 nM; FN-null cell survival / proliferation with PDGF-BB [5]: enhance survival; FN-null cell survival with PDGF ([5]; plastic precoated with 0.15 μM GST-tagged FNIII8-11 ± the named domain, or named protein, PDGF-BB added 1 day after plating, 3 days): increased survival

B5: FNIII12-V15: composite heparinII-binding and variably-spliced IIICS domains (protein)
chain: MGSAIPAPTDLKFTQVTPTSLSAQWTPPNVQLTGYRVRVTPKEKTGPMKEINLAPDSSSVVVSGLMVATKYEVSVYALKDTLTSRPAQGVVTTLENVSPPRRARVTDATETTITISWRTKTETITGFQVDAVPANGQTPIQRTIKPDVRSYTITGLQPGTDYKIYLYTLNDNARSSPVVIDASTAIDAPSNLRFLATTPNSLLVSWQPPRARITGYIIKYEKPGSPPREVVPRPRPGVTEATITGLEPGTEYTIYVIALKNNQKSEPLIGRKKTDELPQLVTLPHPNLHGPEILDVPSTVQKTPFVTHPGYDTGNGIQLPGTSGQQPSVGQQMIFEEHGFRRTTPPTTATPIRHRPRPYPPNVGEEIQIGHIPREDVDYHLYPHGPGLNPNASTGQEALSQTTISWAPFQDTSEYIISCHPVGTDEEPLQFRVPGTSTSATLTGLTRGATYNVIVEALKDQQRHKVREEVVTVGNSVNEGTSHHHHHHC
With B5 as the molecule, how does the “EGF binding (in words)” value (EGF) read?
The value was “all GFs, except EGF, bound”.

What about the “chemotactic activity when assayed alone” value (fibroblast chemotaxis) of the same molecule?
Its value is “no chemotactic activity”.

And the “enhancement of chemotactic activity of TGF-β1, bFGF and PDGF-BB” value (fibroblast chemotaxis)?
Its value is “enhanced the chemotactic activity”.

What about the Kd (PDGF-BB [1]) of the same molecule?
Its Kd is 21 nM.

And the Kd (FGF-2)?
The Kd was 37 nM.

What about the Kd (TGF-β1 [2]; equilibrium binding) of the same molecule?
Its Kd is 97 nM.

What about the Kd (VEGF) of the same molecule?
The Kd was 0.6 nM.

And the “GF binding on addition of salt or acid” value (GFs; up to 2.5 M NaCl added or pH lowered to about 2.0)?
Its value is “failed to demonstrate any diminution”.

And the Kd (PDGF-BB [4])?
Its Kd is 17 nM.

What about the Kd (bFGF) of the same molecule?
Its Kd is 37 nM.

What about the “FN-null cell survival / proliferation with PDGF-BB” value [5] of the same molecule?
The value was “enhance survival”.

B6: FNIII12-15: heparin II binding domain of FN (protein)
chain: MGSTIPAPTDLKFTQVTPTSLSAQWTPPNVQLTGYRVRVTPKEKTGPMKEINLAPDSSSVVVSGLMVATKYEVSVYALKDTLTSRPAQGVVTTLENVSPPRRARVTDATETTITISWRTKTETITGFQVDAVPANGQTPIQRTIKPDVRSYTITGLQPGTDYKIYLYTLNDNARSSPVVIDASTAIDAPSNLRFLATTPNSLLVSWQPPRARITGYIIKYEKPGSPPREVVPRPRPGVTEATITGLEPGTEYTIYVIALKNNQKSEPLIGRKKTGQEALSQTTISWAPFQDTSEYIISCHPVGTDEEPLQFRVPGTSTSATLTGLTRGATYNVIVEALKDQQRHKVREEVVTVGNSVNEGTSHHHHHHC
Which Kd (PDGF-BB [1]) does the source give for B6 here?
The Kd was 6.8 nM.

And the Kd (FGF-2)?
Its Kd is 170 nM.

And the Kd (TGF-β1 [2]; [6])?
The Kd was 16 nM.

And the Kd (TGF-β1 [3])?
The Kd was 16 nM.

And the Kd (PDGF-BB [4])?
Its Kd is 68 nM.

What about the Kd (bFGF) of the same molecule?
Its Kd is 130 nM.
